Test results as given in patent US20180194862A1 (AbbVie / Abbott, published 2018).

T1: mouse CD40 (mouse, UniProt P27512 20-193, limits assumed)
T1 construct: also called murine CD40
T1 sequence (looked up): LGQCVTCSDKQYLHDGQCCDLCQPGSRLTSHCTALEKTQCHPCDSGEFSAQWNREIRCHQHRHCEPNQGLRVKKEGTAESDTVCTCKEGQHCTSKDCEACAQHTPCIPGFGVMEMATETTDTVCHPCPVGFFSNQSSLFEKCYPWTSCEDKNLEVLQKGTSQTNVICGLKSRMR

T2: dog CD40 (dog, UniProt Q7YRL5 21-194, limits assumed)
T2 sequence (looked up): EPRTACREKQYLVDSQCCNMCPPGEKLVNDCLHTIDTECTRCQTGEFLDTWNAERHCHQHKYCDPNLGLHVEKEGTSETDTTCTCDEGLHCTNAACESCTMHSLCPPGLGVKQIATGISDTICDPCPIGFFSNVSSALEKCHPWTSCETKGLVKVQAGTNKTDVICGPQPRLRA


Experiments:
mouse CD40 = target: T1, mouse CD40; experiment: FACS
dog CD40 = target: T2, dog CD40; experiment: FACS
[1] = target: human CD40 on cells (HEK293 stable transfectants, HEK-Blue CD40 cells, human B cells, monocytic cells, … (human, UniProt P25942 21-277)); experiment: cell-based or functional assay
cynomolgus mesothelin = target: T3, cynomolgus mesothelin (cynomolgus); experiment: SPR
T3 construct: also called cynoMSLN; Cyno MSLN

human mesothelin = target: T4, human mesothelin (human, UniProt Q13421 296-580, limits assumed); experiment: SPR
T4 construct: also called Human MSLN

[2] = target: T5, mesothelin on cells (endogenous on SN12C, OVCAR3, SW1990); HEK293 cells expressing cell-surface human … (human, UniProt Q13421 296-598); experiment: FACS, SN12C (CA125-)
T5 construct: whole, on cells; also called cell-surface MSLN
Method: (§1) The binding of anti-mesothelin affinity matured variants was measured by FACS on the ovarian cancer cell line OVCAR3, the pancreatic cancer cell line SW1990, and the renal cancer cell line SN12C. Both OVCAR3 and SW1990 express CA125, but CA125 expression on SN12C cells was not detected.

[3] = target: T5, mesothelin on cells (endogenous on …); experiment: FACS, OVCAR3 (CA125+)
Method: as §1

T4 sequence (Q13421 other isoform, or with tags, fused parts or gaps limits assumed): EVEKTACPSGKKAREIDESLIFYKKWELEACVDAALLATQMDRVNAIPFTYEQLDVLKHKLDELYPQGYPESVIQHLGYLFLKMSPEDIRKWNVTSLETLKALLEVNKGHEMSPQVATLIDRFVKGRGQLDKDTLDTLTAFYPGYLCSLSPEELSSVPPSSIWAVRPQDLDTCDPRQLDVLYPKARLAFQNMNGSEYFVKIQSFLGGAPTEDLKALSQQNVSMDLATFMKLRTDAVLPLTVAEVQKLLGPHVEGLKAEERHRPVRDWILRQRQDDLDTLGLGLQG
human CD40 on cells (HEK293 stable transfectants, HEK-Blue CD40 cells, human B cells, monocytic cells, …, sequence (P25942 21-277 limits assumed): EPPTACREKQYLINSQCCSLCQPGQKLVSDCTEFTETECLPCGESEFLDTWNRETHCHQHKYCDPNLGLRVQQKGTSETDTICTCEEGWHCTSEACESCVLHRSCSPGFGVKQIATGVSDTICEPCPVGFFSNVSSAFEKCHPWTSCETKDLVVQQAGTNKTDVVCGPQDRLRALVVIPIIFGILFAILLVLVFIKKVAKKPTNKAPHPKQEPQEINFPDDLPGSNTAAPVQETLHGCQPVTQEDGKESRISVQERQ
T5 sequence (Q13421 other isoform, or with tags, fused parts or gaps limits assumed): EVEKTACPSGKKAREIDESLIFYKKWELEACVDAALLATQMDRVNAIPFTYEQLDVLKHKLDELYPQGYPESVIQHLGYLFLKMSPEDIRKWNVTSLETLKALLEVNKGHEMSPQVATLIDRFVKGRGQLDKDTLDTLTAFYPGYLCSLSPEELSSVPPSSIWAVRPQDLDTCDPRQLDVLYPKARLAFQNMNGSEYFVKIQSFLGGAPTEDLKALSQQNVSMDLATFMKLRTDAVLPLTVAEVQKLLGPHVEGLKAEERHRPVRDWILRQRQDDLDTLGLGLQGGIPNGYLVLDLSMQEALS

binding result (mouse CD40)	binding result (dog CD40)	Maximal activation (OD655) [1] [OD655]	NF-κB activation EC50, HEK293 CD40 NFκB reporter cells [1] [µg/mL]	Kd (cynomolgus mesothelin) [nM]	koff (cynomolgus mesothelin) [s⁻¹]	kon (cynomolgus mesothelin) [M⁻¹ s⁻¹]	Kd (human mesothelin) [nM]	koff (human mesothelin) [s⁻¹]	kon (human mesothelin) [M⁻¹ s⁻¹]	EC50 [2] [µg/mL]	Maximum binding (MFI) [2] [MFI]	EC50 [3] [µg/mL]	Maximum binding (MFI) [3] [MFI]	Binder
no binding	no binding	0.27	0.29	–	–	–	–	–	–	–	–	–	–	huAb9-2 (antibody, human IgG1, V domains shown, human IgG1, kappa) VH: EVQLQESGPGLVKPSETLSLTCTVSGYSITSNYYWNWIRQPPGKGLEWMGYIRYDGSNNYNPSLKNRVTISRDTSKNQFSLKLSSVTAADTAVYYCARLDYWGQGTTVTVSS VL: DAVMTQTPLSLSVTPGQPASISCRSSQSLENTNGNTFLNWFLQKPGQSPQLLIYRVSNRFSGVPDRFSGSGSGTDFTLKISRVEAEDVGVYFCLQVTHVPFTFGQGTKLEIK
no binding	no binding	0.61	5.55	–	–	–	–	–	–	–	–	–	–	huAb9-4 (antibody, human IgG1, V domains shown, human IgG1, kappa) VH: EVQLQESGPGLVKPSETLSLTCTVSGYSITSNYYWNWIRQPPGKGLEWMGYIRYDGSNNYNPSLKNRITISRDTSKNQFSLKLSSVTAADTAVYYCARLDYWGQGTTVTVSS VL: DAVMTQTPLSLSVTPGQPASISCRSSQSLENTNGNTFLNWYLQKPGQSPQLLIYRVSNRFSGVPDRFSGSGSGTDFTLKISRVEAEDVGVYYCLQVTHVPFTFGQGTKLEIK
no binding	no binding	0.26	0.19	–	–	–	–	–	–	–	–	–	–	huAb9-1 (antibody, human IgG1, V domains shown, human IgG1, kappa) VH: EVQLQESGPGLVKPSETLSLTCTVSGYSITSNYYWNWIRQPPGKGLEWMGYIRYDGSNNYNPSLKNRITISRDTSKNQFSLKLSSVTAADTAVYYCARLDYWGQGTTVTVSS VL: DAVMTQTPLSLSVTPGQPASISCRSSQSLENTNGNTFLNWFLQKPGQSPQLLIYRVSNRFSGVPDRFSGSGSGTDFTLKISRVEAEDVGVYFCLQVTHVPFTFGQGTKLEIK
no binding	no binding	0.27	0.18	–	–	–	–	–	–	–	–	–	–	huAb9-3 (antibody, human IgG1, V domains shown, human IgG1, kappa) VH: EVQLQESGPGLVKPSETLSLTCTVSGYSISSNYYWNWIRQPPGKGLEWMGYIRYDGSNNYNPSLKSRVTISRDTSKNQFSLKLSSVTAADTAVYYCARLDYWGQGTTVTVSS VL: DAVMTQTPLSLSVTPGQPASISCRSSQSLENTNGNTFLNWFLQKPGQSPQLLIYRVSNRFSGVPDRFSGSGSGTDFTLKISRVEAEDVGVYFCLQVTHVPFTFGQGTKLEIK
no binding	no binding	0.54	5.95	–	–	–	–	–	–	–	–	–	–	huAb9-6 (antibody, human IgG1, V domains shown, human IgG1, kappa) VH: EVQLQESGPGLVKPSETLSLTCTVSGYSISSNYYWNWIRQPPGKGLEWMGYIRYDGSNNYNPSLKSRVTISRDTSKNQFSLKLSSVTAADTAVYYCARLDYWGQGTTVTVSS VL: DAVMTQTPLSLSVTPGQPASISCRSSQSLENTNGNTFLNWYLQKPGQSPQLLIYRVSNRFSGVPDRFSGSGSGTDFTLKISRVEAEDVGVYYCLQVTHVPFTFGQGTKLEIK
no binding	no binding	0.46	0.07	–	–	–	–	–	–	–	–	–	–	huAb8-3 (antibody, human IgG1, V domains shown, human IgG1, kappa) VH: EVQLVQSGAEVKKPGSSVKVSCKASGYTFTDYYINWVRQAPGQGLEWIGWIFPGSGSVYCNEQFKGRVTITVDKSTSTAYMELSSLRSEDTAVYYCASSLGKFAYWGQGTLVTVSS VL: DIQMTQSPSSLSASVGDRVTITCKASQSVVTAVAWYQQKPGKSPKLLIYSASNRYTGVPSRFSGSGSGTDFTLTISSLQPEDFATYFCQQYSSYPYTFGGGTKVEIK
–	–	–	–	4.9	0.0001	20000	≤ 0.46	≤ 1e-05	23000	0.09	10000	0.7	3690	HuAM5 (antibody, V domains shown, fully human antibody) VH: EVQLVQSGAEVKKPGASVKVSCKASGDTFNRYYVHWVRQAPGQGLEWMGIINPSGVSTTYAQKFQGRVTMTRDTSTSTVYMELSSLRSEDTAVYYCAEVRGSGYNYFAMDVWGQGTLVTVSS VL: SYELTQPPSVSVSPGQTASITCSGDKLGDKYASWYQQKPGQSPVLVIYQDNRRPSGIPERFSGSNSGNTATLTISGTQAMDEADYYCQAWDSDTYVFGTGTKVTVL
–	–	–	–	4.1	0.00019	47000	0.46	2.4e-05	52000	0.08	9540	0.6	3610	HuAM16 (antibody, V domains shown, fully human antibody) VH: EVQLVQSGAEVKKPGASVKVSCKASGDTFNRYYVQWVRQAPGQGLEWMGIINPSGVSTTYAQKFQGRVTMTRDTSTSTVYMELSSLRSEDTAVYYCAETRGSGFNYFGMDVWGQGTLVTVSS VL: SYELTQPPSVSVSPGQTASITCSGDKLGDKYASWYQQKPGQSPVLVIYQDNRRPSGIPERFSGSNSGNTATLTISGTQAMDEADYYCQAWDSDTYVFGTGTKVTVL
no binding	no binding	0.2	1.21	–	–	–	–	–	–	–	–	–	–	huAb6-2 (antibody, human IgG1, V domains shown, human IgG1, kappa) VH: EVQLVQSGAEVKKPGSSVKVSCKASGYTFTSYWMHWVRQAPGQGLEWIGNIDPSNGETHYNQKFKDRVTITVDKSTSTAYMELSSLRSEDTAVYYCARERIYYSGSTYDGYFDVWGQGTTVTVSS VL: DIQLTQSPSFLSASVGDRVTITCSASSSLSYMHWYQQKPGKSPKRWIYDTSKLASGVPSRFSGSGSGTEYTLTISSLQPEDFATYYCQQWSSNPWTFGGGTKVEIK
no binding	no binding	0.32	4.31	–	–	–	–	–	–	–	–	–	–	huAb6-3 (antibody, human IgG1, V domains shown, human IgG1, kappa) VH: EVQLVQSGAEVKKPGSSVKVSCKASGYTFTSYWMHWVRQAPGQGLEWIGNIDPSNGETHYAQKFQGRVTITVDKSTSTAYMELSSLRSEDTAVYYCARERIYYSGSTYDGYFDVWGQGTTVTVSS VL: DIQLTQSPSFLSASVGDRVTITCSASSSLSYMHWYQQKPGKSPKRWIYDTSKLASGVPSRFSGSGSGTEYTLTISSLQPEDFATYYCQQWSSNPWTFGGGTKVEIK
no binding	no binding	0.26	1.09	–	–	–	–	–	–	–	–	–	–	huAb6-1 (antibody, human IgG1, V domains shown, human IgG1 heavy chain constant region, kappa light chain constant region) VH: EVQLVQSGAEVKKPGSSVKVSCKASGYTFTSYWMHWVRQAPGQGLEWIGNIDPSNGETHYNQKFKDRATLTVDKSTSTAYMELSSLRSEDTAVYYCARERIYYSGSTYDGYFDVWGQGTTVTVSS VL: DIQLTQSPSFLSASVGDRVTITCSASSSLSYMHWYQQKPGKSPKRWIYDTSKLASGVPSRFSGSGSGTEYTLTISSLQPEDFATYYCQQWSSNPWTFGGGTKVEIK
